Data on four molecules can be found in article PMC2764445.

Series [1] has as its target T1, Hfq (His-tagged; natural Hfq used in some experiments) (UniProt P0A6X3 1-102). Nature of the series: fluorescence anisotropy.
In series [2] the target is T1, Hfq (His-tagged; natural Hfq used in …). Nature of the series: EMSA.
Series [3] has the same target. The experiment in a line: EMSA. This is another data set of the same source.

Like-named read-outs stand apart in the source and are kept apart here.

T1 sequence (P0A6X3 whole entry): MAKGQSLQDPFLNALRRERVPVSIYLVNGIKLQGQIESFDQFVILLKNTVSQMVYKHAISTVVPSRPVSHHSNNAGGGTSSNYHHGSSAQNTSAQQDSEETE

B1: D16-FAM (ssRNA)
RNA: CGAAUUUUUUAAGUGC
As to B1, in series [1], the affinity, expressed as Kd, was 23 ± 4 nM.

B2: R16 (ssRNA)
RNA: GCACUUAAAAAAUUCG
On to B2, for which the binding result in series [2] was “binds”.

B3: dMB-D16 (ssDNA)
DNA: CCAGGGCACTTAAAAAATTCGCCTGG
As for B3, in series [3], the binding result was “no binding”.

B4: dMB-R16 (ssDNA)
DNA: CCCCTCGAATTTTTTAAGTGCAGGGG
In the case of B4, in series [3], the binding result is reported as “no binding”.
